The text below walks through data of patent publication US20240270821A1, “GIP/GLP1/GCG TRI-RECEPTOR AGONISTS AND USES THEREOF” (priority 2023, published 2024).

Where a chain is given by its changes, count along the chain named.

T1: human GIP receptor (human) (UniProt P48546)
T1 sequence (looked up): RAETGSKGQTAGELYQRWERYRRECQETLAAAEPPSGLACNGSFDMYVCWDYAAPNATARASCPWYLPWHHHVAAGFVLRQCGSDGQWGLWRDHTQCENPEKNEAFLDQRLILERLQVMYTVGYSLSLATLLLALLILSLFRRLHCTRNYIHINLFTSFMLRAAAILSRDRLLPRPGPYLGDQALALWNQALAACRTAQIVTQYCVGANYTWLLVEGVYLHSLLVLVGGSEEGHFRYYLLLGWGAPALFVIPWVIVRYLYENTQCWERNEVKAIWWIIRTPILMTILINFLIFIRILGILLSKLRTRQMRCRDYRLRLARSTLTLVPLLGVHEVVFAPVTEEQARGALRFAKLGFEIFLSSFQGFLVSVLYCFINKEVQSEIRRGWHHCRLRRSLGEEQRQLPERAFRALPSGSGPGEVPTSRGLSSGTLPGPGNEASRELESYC

B1: Example 248 (peptide)
chain: YXQGTFTSDFSXXLDKKAQXAFIEYLLEXGXSSGAPPPSGE
modifications: Aib, Orn, αMeL, 4Pal; lysine acylated C18 diacid; C-terminal amide; synthetic construct; SITE 2: note = 2-Aminoisobutyric Acid; SITE 12: note = L-ornithine; SITE 13: note = alpha-methyl-leucine; SITE 17: note = Lysine is chemically modified through conjugation of the epsilon-amino group of the Lysine side chain with (2-[2-(2-Amino-ethoxy)-ethoxy]-acetyl)-(gamma-Glu)
B2: Example 285 (peptide)
chain: YXQGTFTSDXSKXLDKKAQXAFIEYLIAXGESSGAPPPSGS
modifications: synthetic construct; SITE 2: note = 2-Aminoisobutyric Acid; SITE 10: note = 3-(4-Pyridyl)-L-alanine; SITE 13: note = alpha-methyl-leucine; SITE 17: note = Lysine is chemically modified through conjugation of the epsilon-amino group of the Lysine side chain with (2-[2-(2-Amino-ethoxy)-ethoxy]-acetyl)
B3: Example 282 (peptide)
chain: B2 chain with A28E, A35E
modifications: synthetic construct; SITE 2: note = 2-Aminoisobutyric Acid; SITE 10: note = 3-(4-Pyridyl)-L-alanine; SITE 13: note = alpha-methyl-leucine; SITE 17: note = Lysine is chemically modified through conjugation of the epsilon-amino group of the Lysine side chain with (2-[2-(2-Amino-ethoxy)-ethoxy]-acetyl)
B4: Example 883 (peptide)
chain: B2 chain with K12Q, X29G, E31P, S41E
modifications: synthetic construct; SITE 2: note = 2-Aminoisobutyric Acid; SITE 10: note = 3-(4-Pyridyl)-L-alanine; SITE 13: note = alpha-methyl-leucine; SITE 17: note = Lysine is chemically modified through conjugation of the epsilon-amino group of the Lysine side chain with (gamma-Glu)2-CO-(CH2)16-CO2H; SITE 20:
B5: Example 32 (peptide)
chain: YXQGTFTSDFSKXLDKKAQXAFIEYLLAGGPSSGEPPPSEGX
modifications: Aib, αMeL, acylated K, C-terminal AEEA amide; synthetic construct; SITE 2: note = 2-Aminoisobutyric Acid; SITE 13: note = alpha-methyl-leucine; SITE 17: note = Lysine is chemically modified through conjugation of the epsilon-amino group of the Lysine side chain with (2-[2-(2-Amino-ethoxy)-ethoxy]-acetyl)-(gamma-Glu)-CO-(CH2) 18-CO2H; SITE 20: n
B6: Example 33 (peptide)
chain: B5 chain with E40G, G41E
modifications: not fully specified; Aib, αMeL; acylated Lys; C-terminal AEEA amide; synthetic construct; SITE 2: note = 2-Aminoisobutyric Acid; SITE 13: note = alpha-methyl-leucine; SITE 17: note = Lysine is chemically modified through conjugation of the epsilon-amino group of the Lysine side chain with (2-[2-(2-Amino-ethoxy)-ethoxy]-acetyl)-(gamma-Glu)-CO-(CH2) 18-CO2H; SITE 20: n
B7: Example 85 (peptide)
chain: B1 chain with E28A, X29G, X31P, E41D
modifications: synthetic construct; SITE 2: note = 2-Aminoisobutyric Acid; SITE 12: note = L-ornithine; SITE 13: note = alpha-methyl-leucine; SITE 17: note = Lysine is chemically modified through conjugation of the epsilon-amino group of the Lysine side chain with (2-[2-(2-Amino-ethoxy)-ethoxy]-acetyl)-(gamma-Glu)
B8: Example 86 (peptide)
chain: B1 chain with E28A, X29G, X31P
modifications: synthetic construct; SITE 2: note = 2-Aminoisobutyric Acid; SITE 12: note = L-ornithine; SITE 13: note = alpha-methyl-leucine; SITE 17: note = Lysine is chemically modified through conjugation of the epsilon-amino group of the Lysine side chain with (2-[2-(2-Amino-ethoxy)-ethoxy]-acetyl)-(gamma-Glu)
B9: Example 74 (peptide)
chain: B1 chain with X31P, E41S
modifications: synthetic construct; SITE 2: note = 2-Aminoisobutyric Acid; SITE 12: note = L-ornithine; SITE 13: note = alpha-methyl-leucine; SITE 17: note = Lysine is chemically modified through conjugation of the epsilon-amino group of the Lysine side chain with (2-[2-(2-Amino-ethoxy)-ethoxy]-acetyl)-(gamma-Glu)
B10: Example 90 (peptide)
chain: B5 chain with K12X, E35A, E40G, G41S, X42E
modifications: synthetic construct; SITE 2: note = 2-Aminoisobutyric Acid; SITE 12: note = L-ornithine; SITE 13: note = alpha-methyl-leucine; SITE 17: note = Lysine is chemically modified through conjugation of the epsilon-amino group of the Lysine side chain with (2-[2-(2-Amino-ethoxy)-ethoxy]-acetyl)-(gamma-Glu)

Sequence of human glucagon receptor (human) (P47871 26-477): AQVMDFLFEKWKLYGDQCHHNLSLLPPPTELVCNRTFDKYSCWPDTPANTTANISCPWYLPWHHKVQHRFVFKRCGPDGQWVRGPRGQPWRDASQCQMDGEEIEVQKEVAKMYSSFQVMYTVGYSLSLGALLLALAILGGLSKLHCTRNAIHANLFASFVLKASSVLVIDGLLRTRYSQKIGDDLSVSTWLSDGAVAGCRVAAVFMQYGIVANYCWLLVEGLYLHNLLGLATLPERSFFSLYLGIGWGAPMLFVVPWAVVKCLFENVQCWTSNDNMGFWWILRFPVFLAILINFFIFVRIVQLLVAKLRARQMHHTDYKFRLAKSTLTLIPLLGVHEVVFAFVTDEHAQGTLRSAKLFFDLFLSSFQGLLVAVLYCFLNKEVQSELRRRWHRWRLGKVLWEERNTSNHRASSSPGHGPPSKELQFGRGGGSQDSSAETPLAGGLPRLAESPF
Sequence of human GLP-1R (SNAP-GLP-1R expressed in HEK293 cells) (human) (P43220 24-463): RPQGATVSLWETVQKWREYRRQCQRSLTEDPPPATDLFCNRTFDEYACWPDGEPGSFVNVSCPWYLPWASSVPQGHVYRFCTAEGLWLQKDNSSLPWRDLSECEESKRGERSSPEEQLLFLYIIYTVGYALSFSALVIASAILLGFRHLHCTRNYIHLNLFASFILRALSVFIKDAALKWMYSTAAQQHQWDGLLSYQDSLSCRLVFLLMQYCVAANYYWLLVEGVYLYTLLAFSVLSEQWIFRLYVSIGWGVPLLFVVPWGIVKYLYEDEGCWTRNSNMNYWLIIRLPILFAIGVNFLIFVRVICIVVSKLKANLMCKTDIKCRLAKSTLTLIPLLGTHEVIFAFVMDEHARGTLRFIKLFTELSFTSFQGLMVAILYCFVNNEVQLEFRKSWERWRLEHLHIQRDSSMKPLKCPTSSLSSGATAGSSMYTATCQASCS

The first assay has as its target T1, human GIP receptor (human). Nature of the assay: cell-based or functional assay.
Consider B1, for which the cAMP Rel EC50 (in the presence of 1% HSA) stood at 10.6 nM.
Turning to B2, the Relative cAMP EC50 stood at 0.0652 nM and the cAMP Rel EC50 (in the presence of 1% HSA) came to 8.22 nM.
Take B3: the Relative cAMP EC50 was found to be 0.163 nM and the cAMP Rel EC50 (in the presence of 1% HSA) is 22.1 nM.
B4: the Relative cAMP EC50 was determined as 0.0779 nM.
As to B5, the Relative cAMP EC50 was 0.28 nM and the cAMP Rel EC50 (in the presence of 1% HSA) worked out at 66.1 nM.
For the molecule B6, the Relative cAMP EC50 came out at 0.285 nM and the cAMP Rel EC50 (in the presence of 1% HSA) was found to be 70.7 nM.

In the next assay the target is human GLP1-R (SNAP-GLP-1R expressed in HEK293 cells) (human) (UniProt P43220). The assay can be described thus: cell-based or functional assay.
Sequence of human GLP1-R (SNAP-GLP-1R expressed in HEK293 cells) (human) (P43220 24-463): as above
Molecule B7 gave a GLP1R Internalization EC50 of 326 nM and an Internalization % TOP of 48.3%.
In turn, B8 displayed a GLP1R Internalization EC50 of 57.8 nM and an Internalization % TOP of 52.5%.
In the same order, the values of B9 are 72.7 nM and 53.3%.
Taken in the same sequence, the figures for B5 were 86.1 nM and 64.4%.
The molecule B10 registered a GLP1R Internalization EC50 of 70.8 nM and an Internalization % TOP of 49.8%.
The molecule B6 registered a GLP1R Internalization EC50 of 106 nM and an Internalization % TOP of 64.6%.

A further assay has as its target human glucagon receptor (human) (UniProt P47871). Nature of the assay: cell-based or functional assay.
For the molecule B1, the cAMP Rel EC50 (in the presence of 1% HSA) came to 241 nM.
Consider B2, for which the Relative cAMP EC50 came to 2.32 nM and the cAMP Rel EC50 (in the presence of 1% HSA) is 409 nM.
As for B3, the Relative cAMP EC50 came to 6.98 nM and the cAMP Rel EC50 (in the presence of 1% HSA) came to 1830 nM.
The molecule B4 had a Relative cAMP EC50 of 4.02 nM.
For the molecule B5, the Relative cAMP EC50 was 11.6 nM and the cAMP Rel EC50 (in the presence of 1% HSA) was 1440 nM.
Turning to B6, the Relative cAMP EC50 came out at 7.04 nM and the cAMP Rel EC50 (in the presence of 1% HSA) is 1310 nM.

In the next assay the target is hGLP-1R (Homo sapiens, UniProt P43220). Nature of the assay: cell-based or functional assay.
Sequence of hGLP-1R (P43220 24-463): as above
For B1, the cAMP Rel EC50 (in the presence of 1% HSA) stood at 438 nM.
For the molecule B2, the Relative cAMP EC50 was 2.87 nM and the cAMP Rel EC50 (in the presence of 1% HSA) was 365 nM.
In the case of B3, the Relative cAMP EC50 stood at 1.09 nM and the cAMP Rel EC50 (in the presence of 1% HSA) is 217 nM.
B4: the Relative cAMP EC50 came to 1.05 nM.
Regarding B5, the Relative cAMP EC50 was 2.55 nM and the cAMP Rel EC50 (in the presence of 1% HSA) stood at 422 nM.
With B6, the Relative cAMP EC50 turned out to be 1.71 nM and the cAMP Rel EC50 (in the presence of 1% HSA) was 436 nM.

Another assay concerns the target human GLP-1R (SNAP-GLP-1R expressed in HEK293 cells) (human) (UniProt P43220). Nature of the assay: cell-based or functional assay.
In the case of B1, the GLP1R Internalization EC50 was determined as 67.4 nM and the Internalization % TOP turned out to be 39.5%.
Turning to B2, the GLP1R Internalization EC50 worked out at 59.9 nM and the Internalization % TOP worked out at 73.6%.
B3 came in with a GLP1R Internalization EC50 of 28.7 nM and an Internalization % TOP of 71.9%.
In turn, B4 came in with a GLP1R Internalization EC50 of 23.9 nM and an Internalization % TOP of 77.1%.
